Laboratory results from patent publication US20060257938A1, “Method of screening for drugs that block ligand binding to a lipid binding protein” (priority 2005, published 2006).
Changes are numbered by the printed parent chain. Several values for one entry are separate records, joined by “and”; a condition that tells them apart may be missing. Equal values may be shown once.

B1: 74A, 72A (protein, listed as Rattus norvegicus)
chain: AFDGTWKVDRNENYEKFMEKMGINVVKRKLGAHDNLKLTITQEGNKFTVKESSNFRNIDVVFELGVDFAYSAAAGTELTGTWTMEGNKLVGKFKRVDNGKELIAVREISGNELIQTYTYEGVEAKRIFKKE
modifications: PEPTIDE (1)...(131) wild-type rat intestinal fatty acid binding protein
B2: 91A, 72A (protein, listed as Rattus norvegicus)
chain: B1 chain with A74D, G91A
modifications: PEPTIDE (1)...(131) wild-type rat intestinal fatty acid binding protein
B3: 74T, 72A (protein, listed as Rattus norvegicus)
chain: B1 chain with A74T
modifications: PEPTIDE (1)...(131) wild-type rat intestinal fatty acid binding protein
B4: 82M1, 72A (protein, listed as Rattus norvegicus)
chain: B1 chain with A74D, W82M
modifications: PEPTIDE (1)...(131) wild-type rat intestinal fatty acid binding protein
B5: 104I1, 72A (protein, listed as Rattus norvegicus)
chain: B1 chain with A74D, A104I
modifications: PEPTIDE (1)...(131) wild-type rat intestinal fatty acid binding protein
B6: 82I3, 72A (protein, listed as Rattus norvegicus)
chain: B1 chain with A74D, W82I
modifications: PEPTIDE (1)...(131) wild-type rat intestinal fatty acid binding protein
B7: 82A1, 72A (protein, listed as Rattus norvegicus)
chain: B1 chain with A74D, W82A
modifications: PEPTIDE (1)...(131) wild-type rat intestinal fatty acid binding protein
B8: 82V1, 72A (protein, listed as Rattus norvegicus)
chain: B1 chain with A74D, W82V
modifications: PEPTIDE (1)...(131) wild-type rat intestinal fatty acid binding protein
B9: 78C2, 72A (protein, listed as Rattus norvegicus)
chain: B1 chain with A74D, L78C
modifications: PEPTIDE (1)...(131) wild-type rat intestinal fatty acid binding protein
B10: 78T1, 72A (protein, listed as Rattus norvegicus)
chain: B1 chain with A74D, L78T
modifications: PEPTIDE (1)...(131) wild-type rat intestinal fatty acid binding protein
B11: 78M1, 72A (protein, listed as Rattus norvegicus)
chain: B1 chain with A74D, L78M
modifications: PEPTIDE (1)...(131) wild-type rat intestinal fatty acid binding protein
B12: 74Q, 72A (protein, listed as Rattus norvegicus)
chain: B1 chain with A74Q
modifications: PEPTIDE (1)...(131) wild-type rat intestinal fatty acid binding protein
B13: 74C, 72A (protein, listed as Rattus norvegicus)
chain: B1 chain with A74C
modifications: PEPTIDE (1)...(131) wild-type rat intestinal fatty acid binding protein
B14: 74L, 72A (protein, listed as Rattus norvegicus)
chain: B1 chain with A74L
modifications: PEPTIDE (1)...(131) wild-type rat intestinal fatty acid binding protein
B15: 82A, 72A (protein, listed as Rattus norvegicus)
chain: B1 chain with A74D, W82A
modifications: PEPTIDE (1)...(131) wild-type rat intestinal fatty acid binding protein
B16: 78F1, 72A (protein, listed as Rattus norvegicus)
chain: B1 chain with A74D, L78F
modifications: PEPTIDE (1)...(131) wild-type rat intestinal fatty acid binding protein
B17: 82Y2, 72A (protein, listed as Rattus norvegicus)
chain: B1 chain with A74D, W82Y
modifications: PEPTIDE (1)...(131) wild-type rat intestinal fatty acid binding protein
B18: 74N, 72A (protein, listed as Rattus norvegicus)
chain: B1 chain with A74N
modifications: PEPTIDE (1)...(131) wild-type rat intestinal fatty acid binding protein
B19: 78A3, 72A (protein, listed as Rattus norvegicus)
chain: B1 chain with A74D, L78A
modifications: PEPTIDE (1)...(131) wild-type rat intestinal fatty acid binding protein
B20: 78W1, 72A (protein, listed as Rattus norvegicus)
chain: B1 chain with A74D, L78W
modifications: PEPTIDE (1)...(131) wild-type rat intestinal fatty acid binding protein
B21: 82F1, 72A (protein, listed as Rattus norvegicus)
chain: B1 chain with A74D, W82F
modifications: PEPTIDE (1)...(131) wild-type rat intestinal fatty acid binding protein
B22: 78H1, 72A (protein, listed as Rattus norvegicus)
chain: B1 chain with A74D, L78H
modifications: PEPTIDE (1)...(131) wild-type rat intestinal fatty acid binding protein
B23: 78I1, 72A (protein, listed as Rattus norvegicus)
chain: B1 chain with A74D, L78I
modifications: PEPTIDE (1)...(131) wild-type rat intestinal fatty acid binding protein

test: Probe fluorescence ratio response to linolenic acid relative to ADIFAB2; type: binding; details: response relative to ADIFAB2
How it was run: (§1)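 Each fatty acid's response was expressed relative to ADIFAB2, the rI-FABP-L72A probe, as ΔR/ΔRreference. ΔR is the change in the background-corrected two-wavelength intensity ratio R=Fλ1/Fλ2 from its analyte-free baseline R0. Emission was read near about 420-480 nm for unbound and about 495-580 nm for FFA-bound probe.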

| Molecule | DR/DR LNA |
| --- | --- |
| B1 | 1.42 |
| B2 | 0.91 |
| B3 | 0.78 |
| B4 | 0.75 |
| B5 | 0.30 |
| B6 | 0.45 |
| B7 | 0.66 |
| B8 | 0.76 |
| B9 | 0.20 |
| B10 | 1.20 |
| B11 | 1.50 |
| B12 | 0.86 |
| B13 | 0.74 |
| B14 | 0.40 and 0.404 |
| B15 | 1.56 |
| B16 | 2.05 |
| B17 | 1.57 |
| B18 | 1.57 |
| B19 | 0.50 |
| B20 | 0.53 |
| B21 | 0.76 |
| B22 | 1.26 |
| B23 | 1.66 |

test: Probe fluorescence ratio response to oleic acid relative to ADIFAB2; type: binding; details: response relative to ADIFAB2
How it was run: as §1

| Molecule | DR/DR OA |
| --- | --- |
| B1 | 1.34 |
| B2 | 0.85 |
| B3 | 0.70 |
| B4 | 0.92 |
| B5 | 0.31 |
| B6 | 0.54 |
| B7 | 0.80 |
| B8 | 0.65 |
| B9 | 0.19 |
| B10 | 1.08 |
| B11 | 1.44 |
| B12 | 0.74 |
| B13 | 0.56 |
| B14 | 0.19 and 0.188 |
| B15 | 1.53 |
| B16 | 1.83 |
| B17 | 1.53 |
| B18 | 1.52 |
| B19 | 0.41 |
| B20 | 0.53 |
| B21 | 0.78 |
| B22 | 1.13 |
| B23 | 0.93 |

test: Probe fluorescence ratio response to arachidonic acid relative to ADIFAB2; type: binding; details: Arachidonic acid; response relative to ADIFAB2
How it was run: as §1

| Molecule | DR/DR AA |
| --- | --- |
| B1 | 1.42 |
| B2 | 0.86 |
| B3 | 0.76 |
| B4 | 0.97 |
| B6 | 0.67 |
| B7 | 0.73 |
| B8 | 0.86 |
| B9 | 0.15 |
| B10 | 1.07 |
| B11 | 1.39 |
| B12 | 0.81 |
| B13 | 0.83 |
| B14 | 0.22 |
| B15 | 1.55 |
| B16 | 2.04 |
| B17 | 0.65 |
| B18 | 1.62 |
| B19 | 0.48 |
| B20 | 0.49 |
| B21 | 0.68 |
| B22 | 1.23 |
| B23 | 1.27 |

same assay, conditions: arachidonic acid; response relative to ADIFAB2

| Molecule | DR/DR AA |
| --- | --- |
| B5 | 0.28 |
| B14 | 0.222 |

test: Probe fluorescence ratio response to linoleic acid relative to ADIFAB2; type: binding; details: response relative to ADIFAB2
How it was run: as §1

| Molecule | DR/DR LA |
| --- | --- |
| B1 | 1.34 |
| B2 | 0.83 |
| B3 | 0.82 |
| B4 | 0.94 |
| B5 | 0.30 |
| B6 | 0.52 |
| B7 | 0.78 |
| B8 | 0.74 |
| B9 | 0.20 |
| B10 | 1.25 |
| B11 | 1.44 |
| B12 | 0.87 |
| B13 | 0.71 |
| B14 | 0.30 and 0.305 |
| B15 | 1.67 |
| B16 | 2.00 |
| B17 | 1.53 |
| B18 | 1.44 |
| B19 | 0.44 |
| B20 | 0.57 |
| B21 | 1.08 |
| B22 | 1.28 |
| B23 | 1.11 |

test: Probe fluorescence ratio response to palmitic acid relative to ADIFAB2; type: binding; details: response relative to ADIFAB2
How it was run: as §1

| Molecule | DR/DR PA |
| --- | --- |
| B1 | 1.27 |
| B2 | 0.80 |
| B3 | 0.37 |
| B4 | 0.54 |
| B5 | 0.23 |
| B6 | 0.36 |
| B7 | 0.26 |
| B8 | 0.48 |
| B9 | 0.09 |
| B10 | 0.54 |
| B11 | 0.92 |
| B12 | 0.43 |
| B13 | 0.29 |
| B14 | 0.36 and 0.361 |
| B15 | 0.84 |
| B16 | 0.91 |
| B17 | 0.88 |
| B18 | 1.38 |
| B19 | 0.25 |
| B20 | 0.29 |
| B21 | 0.41 |
| B22 | 0.57 |
| B23 | 0.52 |
